The source of these data is patent US8530245B2.

The target in this test is Alexa Fluor-AChR conjugate (acetylcholine receptor purified from Torpedo californica electric organs, labelled with Alexa Fluor 488 or 647) (Torpedo californica) (UniProt P02710). Description: flow cytometry, CD19+ B cells stained with Alexa-AChR.

The substance “B cells (CD19+ or B220+) from CFA+AChR-immunized C57BL/6 mice with EAMG (spleen, lymph node, peripheral blood) (cells without a defined receptor)” displayed a Percent of B cells that were AChR+ (lymph node, mean) of 10.4%.
Regarding “B cells from unimmunized naive C57BL/6 mice (cells without a defined receptor)”, the Percent of B cells that were AChR+ (lymph node, mean) amounted to 5.6%.
